Reference: patent US20200383917A1 (NORTHWESTERN UNIVERSITY, published 2020)
Ends that are not written are not given here.

Target: T1, CD11c on the surface of mouse bone marrow-derived dendritic cells (BMDCs) (mouse, UniProt Q9QXH4 20-1169)
T1 sequence (looked up): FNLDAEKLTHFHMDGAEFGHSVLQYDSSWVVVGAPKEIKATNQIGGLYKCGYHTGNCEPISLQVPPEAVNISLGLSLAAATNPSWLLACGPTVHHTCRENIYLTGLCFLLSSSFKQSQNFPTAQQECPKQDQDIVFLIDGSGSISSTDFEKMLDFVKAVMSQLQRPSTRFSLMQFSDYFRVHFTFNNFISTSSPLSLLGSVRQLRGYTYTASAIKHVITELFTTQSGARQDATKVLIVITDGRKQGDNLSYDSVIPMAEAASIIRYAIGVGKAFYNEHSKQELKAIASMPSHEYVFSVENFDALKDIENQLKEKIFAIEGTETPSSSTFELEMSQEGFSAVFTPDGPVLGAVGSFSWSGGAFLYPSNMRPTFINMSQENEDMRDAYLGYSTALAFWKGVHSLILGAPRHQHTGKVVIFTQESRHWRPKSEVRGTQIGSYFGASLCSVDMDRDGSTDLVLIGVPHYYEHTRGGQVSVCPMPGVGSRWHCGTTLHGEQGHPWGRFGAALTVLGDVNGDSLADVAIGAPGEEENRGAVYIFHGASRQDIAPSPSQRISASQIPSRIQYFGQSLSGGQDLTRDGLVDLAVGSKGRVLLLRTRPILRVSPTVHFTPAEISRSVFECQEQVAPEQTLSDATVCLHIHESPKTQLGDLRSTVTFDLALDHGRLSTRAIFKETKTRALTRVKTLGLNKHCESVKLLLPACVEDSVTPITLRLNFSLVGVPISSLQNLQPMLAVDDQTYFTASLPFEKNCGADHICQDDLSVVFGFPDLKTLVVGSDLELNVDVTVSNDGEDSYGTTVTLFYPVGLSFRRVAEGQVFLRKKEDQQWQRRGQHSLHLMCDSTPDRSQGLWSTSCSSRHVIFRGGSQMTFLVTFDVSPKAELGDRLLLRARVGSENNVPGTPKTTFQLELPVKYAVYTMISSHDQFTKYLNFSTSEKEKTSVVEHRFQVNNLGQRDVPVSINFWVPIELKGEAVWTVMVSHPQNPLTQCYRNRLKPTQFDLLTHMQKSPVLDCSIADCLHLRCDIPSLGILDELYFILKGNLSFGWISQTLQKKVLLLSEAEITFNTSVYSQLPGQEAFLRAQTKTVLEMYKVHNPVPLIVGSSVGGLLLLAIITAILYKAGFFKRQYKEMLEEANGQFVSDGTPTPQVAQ
Assay: cell-based or functional assay

## GGVTLTYQFAAGPRDK (not fully specified (N-terminus); also: displayed on PEG-bl-PPS polymersome) [P-D2-PEG5-PS (PEG-bl-PPS polymersome displaying the P-D2-PEG5-Lys-PA targeting peptide construct)]
  cellular uptake by BMDCs (flow cytometry, nile red-loaded PS, 1 h incubation): > 3 fold
